# From paper PMC5630700 (Frontiers in Immunology, 2017)
# B1: sdAb A–Gaussia luciferase fusion (glucibody, pecan35) (VHH)
# VHH: EVKLQESGGGLVQAGESLRLSCAVPPEVFDIRTVAWYRQVPLGKGRELLSSITPWNKTTYEDSVKDRFTISRDNAKYTVYLQMNDLKPEDTAVYYCAQGWGIASMRYWGQGTQVTVSS
# notes: also called sdAb A glucibody; sdAb A–gluc; source: E. coli Tuner + pRARE, periplasmic (pecan35), purified
# B2: sdAb C–Gaussia luciferase fusion (glucibody, pecan35) (VHH)
# VHH: KVQLQESGGGLVQVGGSLRLSCKASGFTFRSSAMGWYRRAPGKQRELVASLTTTGTADYGDFVKGRFTISRDNAENTVDLHMNSLKPEDTAVYYCHEDPYGMESLRYWGQGTQVTVSS
# notes: also called sdAb C glucibody; sdAb C–gluc; source: E. coli Tuner + pRARE, periplasmic (pecan35), purified
# B3: sdAb B–Gaussia luciferase fusion (glucibody, pecan35) (VHH)
# VHH: KVQLQESGGGLVQAGGSLRLSCAASGGTFSINTLGWYRRAPGKEREFVARISSGGITRYADSVKGRFTISRDNGKNTVYLDMNSLKPEDTAVYYCMYRNWGGGLDVYWGQGTQVTVSS
# notes: also called sdAb B glucibody; sdAb B–gluc; source: E. coli Tuner + pRARE, periplasmic (pecan35), purified
# B4: sdAb A as a BAP fusion (from pecan126) (VHH)
# VHH: B1 VHH
# notes: also called wild-type sdAb A; source: E. coli HBV88 (pecan126), purified
# B5: sdAb C as a BAP fusion (from pecan126) (VHH)
# VHH: B2 VHH
# notes: also called wild-type sdAb C; source: E. coli HBV88 (pecan126), purified
# B6: sdAb B as a BAP fusion (from pecan126) (VHH)
# VHH: B3 VHH
# notes: also called wild-type sdAb B; source: E. coli HBV88 (pecan126), purified
# Biological target: T1, mbp-NP632 fusion protein (Marburg virus Musoke-80, UniProt P27588)
# T1 construct: source: E. coli (pE), purified
# T1 sequence (P27588 632-695): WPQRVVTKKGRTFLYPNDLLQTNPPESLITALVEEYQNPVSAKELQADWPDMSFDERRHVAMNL
# Assay: ELISA
# Conditions: both partners purified
row,Binder,EC50 [nM]
1,B1,15.4
2,B2,22.3
3,B3,189

# Biological target: T2, nluc-NP632 fusion protein (Marburg virus Musoke-80, UniProt P27588)
# T2 construct: source: E. coli, cytosolic (pENCO derivative), purified
# Assay: ELISA
# Conditions: both partners purified
row,Binder,EC50 [nM]
1,B4,12.8
2,B5,26.6
3,B6,28.5
